{
  "source": "paper PMC2863221",
  "about": "(The Journal of Biological Chemistry, 2010)",
  "target": "the molecule itself",
  "assay": "SDS-PAGE and Western blot",
  "data": [
    {"protein": "HA-tagged rat syndecan-4 AAA mutant (serines 44, 65 and 67 mutated to alanine; no glycosaminoglycan chains) (receptor, UniProt P34901 24-202, looked up) ESIRETEVIDPQDLLEGRYFAGALPDDEDAGGLEQDSDFELAGAGDLDDTEEPRTFPEVISPLVPLDNHIPENAQPGIRVPSEPKELEENEVIPKRVPSDVGDDDVSNKVSMSSTSQGSNIFERTEVLAALIVGGVVGILFAVFLILLLVYRMKKKDEGSYDLGKKPIYKKAPTNEFYA", "values": [
      {"measurement": "stoichiometry N", "value": 2}
    ]}
  ]
}
